Assay results: IntAct's records for PubMed 21057110

B1: Arf-GAP with dual PH domain-containing protein 1 (Homo sapiens), O75689 (parent)
chain: MAKERRRAVLELLQRPGNARCADCGAPDPDWASYTLGVFICLSCSGIHRNIPQVSKVKSVRLDAWEEAQVEFMASHGNDAARARFESKVPSFYYRPTPSDCQLLREQWIRAKYERQEFIYPEKQEPYSAGYREGFLWKRGRDNGQFLSRKFVLTEREGALKYFNRNDAKEPKAVMKIEHLNATFQPAKIGHPHGLQVTYLKDNSTRNIFIYHEDGKEIVDWFNALRAARFHYLQVAFPGAGDADLVPKLSRNYLKEGYMEKTGPKQTEGFRKRWFTMDDRRLMYFKDPLDAFARGEVFIGSKESGYTVLHGFPPSTQGHHWPHGITIVTPDRKFLFACETESDQREWVAAFQKAVDRPMLPQEYAVEAHFKHKP

Variants of: B1
Conditions: with ki13b_human KIF13B

effect of a mutation on the interaction | Variant
disrupting interaction strength | Y211G
disrupting interaction strength | Y211R
